Legend:
[1] = biological target: Cdh23-EC1+2 V3C, labelled with cy3 or cy5 at the N-terminus (mouse); test: FRET or BRET
[2] = biological target: Cdh23-EC1+2 (mouse cadherin-23 extracellular repeats EC1 and EC2), wild type (mouse) (UniProt Q99PF4); test: FRET or BRET
[3] = biological target: Cdh23-EC1+2 (mouse cadherin-23 extracellular repeats EC1 and EC2), wild type (mouse) (UniProt Q99PF4); test: SEC
[4] = biological target: Cdh23-EC1+2 (mouse cadherin-23 extracellular repeats EC1 and EC2), wild type (mouse) (UniProt Q99PF4); test: AUC
[5] = biological target: Cdh23-EC1+2 (mouse cadherin-23 extracellular repeats EC1 and EC2), wild type (mouse) (UniProt Q99PF4); test: single-molecule force spectroscopy
[6] = biological target: Cdh23-EC1+2 (mouse cadherin-23 extracellular repeats EC1 and EC2), wild type (mouse) (UniProt Q99PF4); test: dynamic light scattering
AUC = biological target: the molecule itself; test: AUC

Cdh23-EC1+2 V3C, labelled with cy3 or cy5 at the N-terminus (domain or fragment)
FRET efficiency [1]: 0.15
FRET efficiency [2]: 0.64

Cdh23-EC1+2 (mouse cadherin-23 extracellular repeats EC1 and EC2), wild type (from UniProt Q99PF4 24-228) (domain or fragment)
stoichiometry N [3]: 2
Kd [4]: 18 µM
stoichiometry N [4]: 2
percent unbinding events [5]: 8 to 10%
probability of events [5]: 6%
τ0 (intrinsic lifetime at zero force), high-force distribution [5]: 1220 s
τ0 (intrinsic lifetime at zero force), low-force distribution [5]: 1.86 s
stoichiometry N [6]: 2

B1: Cdh23-EC1 (mouse cadherin-23 extracellular repeat EC1) (domain or fragment, UniProt Q99PF4 24-124, looked up)
chain: QVNRLPFFTNHFFDTYLLISEDTPVGSSVTQLLARDMDNDPLVFGVSGEEASRFFAVEPDTGVVWLRQPLDRETKSEFTVEFSVSDHQGVITRKVNIQVGD
modifications: C-terminus covalently joined by sortase A to GGGGC on PEG-coated coverslips and AFM cantilevers in force spectroscopy
stoichiometry N (AUC): 2

Reference: article doi:10.1101/208272 (bioRxiv, 2017)
